The target in assay [1] is surface vimentin (human (endogenous in HeLa and HT-29)) (UniProt P08670). Nature of the assay: flow cytometry on cells.
Assay [2] has the same target. Nature of the assay: flow cytometry on cells. The source holds these as a separate data set.

Where two headings read alike, the source gives them in different places.

The record followed here is PMC3436905.

UniProt P08670, sequence (P08670 whole entry): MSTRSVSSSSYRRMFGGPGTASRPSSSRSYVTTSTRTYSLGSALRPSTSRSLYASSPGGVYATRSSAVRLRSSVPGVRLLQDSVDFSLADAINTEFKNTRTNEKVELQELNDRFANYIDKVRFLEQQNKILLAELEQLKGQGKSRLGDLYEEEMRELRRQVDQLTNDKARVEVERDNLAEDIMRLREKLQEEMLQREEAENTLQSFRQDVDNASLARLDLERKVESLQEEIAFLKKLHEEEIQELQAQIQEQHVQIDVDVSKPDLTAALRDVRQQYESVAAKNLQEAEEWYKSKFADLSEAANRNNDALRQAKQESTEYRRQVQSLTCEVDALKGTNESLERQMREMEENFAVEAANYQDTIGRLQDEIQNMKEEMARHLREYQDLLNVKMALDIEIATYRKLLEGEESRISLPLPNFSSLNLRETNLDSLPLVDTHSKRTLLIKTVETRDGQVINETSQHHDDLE

As to “Cowpea mosaic virus nanoparticles (complex)”, the percent of cells positive for CPMV uptake in assay [1] turned out to be 17%; in assay [2], 38%.
